The labels stand for the following.
B1: CPEB3 Ribozyme (parent)
chain: GGGGGCCACAGCAGAAGCGUUCACGUCGCGGCCCCUGUCAGAUUCUGGUGAAUCUGCGAAUUCUGCUGU

Variants of B1 are the subject of this data set. Put plainly: self-cleavage, relative activity (ratio to wild type); higher = more cleavage; co-transcriptional.
As to GGGGGCCACACCAGAAGCGUUCACGUCGCGGCCCCUGUCAGAUUCUGGUGAAGCUGCGAAUUCUGCUGU, the self-cleavage came to 0.415. Consider GGGGGCCACAGAAGAAGAGUUCACGUCGCGGCCCCUGUCAGAUUCUGGUGAAUCUGCGAAUUCUGCUGU, for which the self-cleavage turned out to be 0.139. As for GGGGGCCACAUCAGGAGCGUUCACGUCGCGGCCCCUGUCAGAUUCUGGUGAAUCUGCGAAUUCUGCUGU, the figure is 0.779; as for GGGGGCCACAUCAGCAGCGUUCACGUCGCGGCCCCUGUCAGAUUCUGGUGAAUCUGCGAAUUCUGCUGU, 0.531; as for GGGGGCCACACCAGAAGCGUUCACGUCGCGGCCCCUGUCAGAUUCUGGUGAAUCUGCGAAUUCGGCUGU, 0.435. As for GGGGGCCACAGAAGAAGCGUUCACGUGGCGGCCCCUGUCAGAUUCUGGUGAAUCUGCGAAUUCUGCUGU, the figure is 0.171; as for GGGGGCCACAGAUGAAGCGUUCACGUCGCGGCCCCUGUCAGAUUCUGGUGAAUCUGCGAAUUCUGCUGU, 0.15; as for GGGGGCCACAUCAGAAGCGUUCACGUCGCGGCCCCUGUCAGAUUCUGGUGAAUGUGCGAAUUCUGCUGU, 0.412. As to GGGGGCCACAUCAGAAGCGUUCACGUCGCGGCCCCUGUCAGAUUCUGGUGAAUAUGCGAAUUCUGCUGU, the self-cleavage was 0.361. As for GGGGGCCACAUCAGAAGCGUUCACGUCGCGGCCCCUGUCAGAUUCUGGUGAAUUUGCGAAUUCUGCUGU, the figure is 0.819.

Consider GGGGGCCACAUCAGAAGCGUUCACGUCGCGGCCCCUGUCAGAUUCUGGUAAAUCUGCGAAUUCUGCUGU, for which the self-cleavage was 0.896. On to GGGGGCCACAUCAGAAGCGUUCACGUCGCGGCUCCUGUCAGAUUCUGGUGAAUCUGCGAAUUCUGCUGU, for which the self-cleavage came to 0.948. As for GGGGGCCACACCAGAAGCGUUCACGUCGCGGCCCCUGUCAGAUUCUGGUGAAUCUGCGAAUUCUGCUUU, the figure is 0.881. As for GGGGGCCACAUCAGAAGCGUUCACGUCGCGGCCCCUGUCACAUUCUGGUGAAUCUGCGAAUUCUGCUGU, the figure is 0.197; as for GGGGGCCACAUCAGAAGCGUUCACGUCGCGGCCCCUGUCAGAUUGUGGUGAAUCUGCGAAUUCUGCUGU, 0.772. Next, GGGGGCCACAUCAGAAGCGUUCACGUCGCGGCCCCUGUCAGAUUCUGGUGAAUCUGCGAACUCUGCUGU: 0.271; GGGGGCCACAUCAGAAGCGUUCACGUCGCGGCCCCUGUCAGAUUCUGGUGAUUCUGCGAAUUCUGCUGU: 0.851; GGGGGCCACAUCAGAAGCGUUCACGUCGCGGCCCCUGUCAGAUUCUGGUGACUCUGCGAAUUCUGCUGU: 0.761.

GGGGGCCACAUCAGAAGCGUUCACGUCGCGGCCCCUGUCAGAUUCUGGUGAAUCUGCGUAUUCUGCUGU: the self-cleavage is 0.395.

On to GGGGGCCACAUCAGAAGCGUUCACGUCGCGGCCCCUGUCAGAUUCUGGUGAAUCUGCGCAUUCUGCUGU, for which the self-cleavage was determined as 0.35. Next, GGGGGCCACAUCAGAAGCGUUCACGGCGCGGCCCCUGUCAGAUUCUGGUGAAUCUGCGAAUUCUGCUGU: 0.635; GGGGGCCACAUCAGAAGCGUUCACCUCGCGGCCCCUGUCAGAUUCUGGUGAAUCUGCGAAUUCUGCUGU: 0.0857.

On to GGGGGCCACAUCAGAAGCGUUCACGUCGCGACCCCUGUCAGAUUCUGGUGAAUCUGCGAAUUCUGCUGU, for which the self-cleavage is 0.746. As for GGGGGCCACAUCAGAAGCGUUCACGUCGCGGCCACUGUCAGAUUCUGGUGAAUCUGCGAAUUCUGCUGU, the figure is 0.694. With GGGGGCCACAUCAGAAGCGUUCACGUCGCGGCCCCUGUCAGAUUCUGAUGAAUCUGCGAAUUCUGCUGU, the self-cleavage was 0.917. As for GGGGGCCACAUCAGAAGCGUUCACGUCGCGGCCCCUGUCAGAUUCUGUUGAAUCUGCGAAUUCUGCUGU, the figure is 0.939; as for GGGGGCCACAUCAGAAGCGUUCAAGUCGCGGCCCCUGUCAGAUUCUGGUGAAUCUGCGAAUUCUGCUGU, 0.308. Next, GGGGGCCACAUCAGAAGCGUCCACGUCGCGGCCCCUGUCAGAUUCUGGUGAAUCUGCGAAUUCUGCUGU: 0.541. As for GGGGGCCACAUCAGAAGCGUGCACGUCGCGGCCCCUGUCAGAUUCUGGUGAAUCUGCGAAUUCUGCUGU, the figure is 0.196. GGGGGCCACACCAGAAGCGUUCACGUCGCGGCCCCUGUCAGAUUCUGGCGAAUCUGCGAAUUCUGCUGU: the self-cleavage was 0.803.

Consider GGGGGCCACACCAGAAGCGUUCACGUCGCGGCCCCUGUCAGAUUCUGGGGAAUCUGCGAAUUCUGCUGU, for which the self-cleavage came to 0.866. Next, GGGGGCCACAGAAGAAGCGUUCACGUCGCGGCCCCUGUCAGAUUCUGGUGAAUCUGCGACUUCUGCUGU: 0.264; GGGGGCCACAUCAAAAGCGUUCACGUCGCGGCCCCUGUCAGAUUCUGGUGAAUCUGCGAAUUCUGCUGU: 0.131; GGGGGCCACAUCAGAGGCGUUCACGUCGCGGCCCCUGUCAGAUUCUGGUGAAUCUGCGAAUUCUGCUGU: 0.572. In the case of GGGGGCCACAUCAGAAGCGUUCACGUCGCGGCCCCUGUCAGACUCUGGUGAAUCUGCGAAUUCUGCUGU, the self-cleavage turned out to be 0.768. As for GGGGGCCACAGAAGAAGCGUUCCCGUCGCGGCCCCUGUCAGAUUCUGGUGAAUCUGCGAAUUCUGCUGU, the figure is 0.6; as for GGGGGCCACAUCAGAAGCGUUCACGUCGCGGCCCCUGUCAGAUUCUGGUGAAUCAGCGAAUUCUGCUGU, 0.36. As for GGGGGCCACAUCAGAAGCGUUCACGUCGCGGCCCCUGUCAGAUUCUGGUGAAUCCGCGAAUUCUGCUGU, the figure is 0.302; as for GGGGGCCACAUCAGAAGCGUUCACGUCGCGGCCCCUGUCAGAUUCUGGUGAAUCUGCGAAUUCUACUGU, 0.682.

The values are drawn from the RNAGym collection of RNA variant scans (doi:10.7554/elife.80360).
